Source: patent US20190271705A1
Numbering of substitutions follows the chain as printed. Names may count otherwise.

What was measured:
[1] = biological target: seven peptides (fluorescein-labeled pTyr-containing peptides of the fluorescence polarization assay); assay: fluorescence polarization in solution, SH2 domain titrated against fluorescein-labeled peptide
[2] = biological target: seven peptides (fluorescein-labeled pTyr-containing peptides of the fluorescence polarization assay); assay: fluorescence polarization in solution; average over seven peptides, reference wild-type Fyn SH2 domain

B1: wild-type Fyn SH2 domain (hexa-histidine-tagged construct, SEQ ID NO:4) (protein)
chain: MKIEEHHHHHHSSGRENLYFQGGAAQPAAPVDSIQAEEWYFGKLGRKDAERQLLSFGNPRGTFLIRESETTKGAYSLSIRDWDDMKGDHVKHYKIRKLDNGGYYITTRAQFETLQQLVQHYSERAAGLSSRLVVPSHKGAAA
Kd [1]: 10 µM

B2: T8V variant Fyn SH2 domain (designed binder)
chain: B1 chain with T71V
average fold affinity increase (Kd[wild-type] divided by Kd[variant]) [2]: 1.4 fold

B3: T8I/S10A/K15L variant Fyn SH2 domain (designed binder)
chain: B1 chain with T71I, S76A, K94L
average fold affinity increase (Kd[wild-type] divided by Kd[variant]) [2]: 86.4 fold
